Results from US20130039933A1 (UNIVERSITY OF MIAMI, published 2013).

B1: Full length DAD1 (defender against apoptotic cell death) fused to the GAL4 activation domain (other, human, UniProt P61803 1-113, looked up, not shown: large carriers)
chain: MSASVVSVISRFLEEYLSSTPQRLKLLDAYLLYILLTGALQFGYCLLVGTFPFNSFLSGFISCVGSFILAVCLRIQINPQNKADFQGISPERAFADFLFASTILHLVVMNFVG
notes: Yeast two-hybrid prey; also called DAD I
B2: control vector (AD) (other, yeast, UniProt P04386 768-881, looked up)
chain: ANFNQSGNIADSSLSFTFTNSSNGPNLITTQTNSQALSQPIASSNVHDNFMNNEITASKIDDGNNSKPLSPGWTDQTAYNAFGITTGMFNTTTMDDVYNYLFDDEDTPPNPKKE
notes: Yeast two-hybrid negative control

Legend:
[1] = target: T1, BD-hSTING-C (carboxyl region of STING, amino acids 173-379, fused to the binding domain of yeast GAL4) (yeast; human, UniProt P04386 1-147); assay: yeast two-hybrid screen
T1 construct: Yeast two-hybrid bait; also called pGBK-T7-hSTING-C; pGBKT7-STING C-terminal

[2] = target: T1, BD-hSTING-C (carboxyl region of STING, …); assay: yeast two-hybrid, high stringency plates (-Trp, -Leu, -Ade, -His)

| Binder | binding result [1] | binding result [2] |
| --- | --- | --- |
| B1 | binds | – |
| B2 | – | no binding |
